Assay results as given in patent publication US20260151499A1, “ANTIBODY DERIVATIVE AND USE THEREOF” (TSINGHUA UNIVERSITY, priority 2023, published 2026).
“And” between values parts separate entries of the source, which are not always exact repeats. Equal entries are not always repeated. Where two headings read alike, the source gives them in different places.

Key:
CD73 = molecular target: T1, CD73 (Homo sapiens, UniProt P21589); assay: CD73 inhibition, AMP hydrolysis, malachite green phosphate assay; type: biochemical; details: for IC50: full-length IgG1 conjugated to BN3, read-out: IC50 ± SD (nM) of Ab-BN3 for inhibition of CD73
T1 construct: His (Chis) (C); made in house; host or cells: 293 cells
T1 sequence (P21589 27-549 limits assumed): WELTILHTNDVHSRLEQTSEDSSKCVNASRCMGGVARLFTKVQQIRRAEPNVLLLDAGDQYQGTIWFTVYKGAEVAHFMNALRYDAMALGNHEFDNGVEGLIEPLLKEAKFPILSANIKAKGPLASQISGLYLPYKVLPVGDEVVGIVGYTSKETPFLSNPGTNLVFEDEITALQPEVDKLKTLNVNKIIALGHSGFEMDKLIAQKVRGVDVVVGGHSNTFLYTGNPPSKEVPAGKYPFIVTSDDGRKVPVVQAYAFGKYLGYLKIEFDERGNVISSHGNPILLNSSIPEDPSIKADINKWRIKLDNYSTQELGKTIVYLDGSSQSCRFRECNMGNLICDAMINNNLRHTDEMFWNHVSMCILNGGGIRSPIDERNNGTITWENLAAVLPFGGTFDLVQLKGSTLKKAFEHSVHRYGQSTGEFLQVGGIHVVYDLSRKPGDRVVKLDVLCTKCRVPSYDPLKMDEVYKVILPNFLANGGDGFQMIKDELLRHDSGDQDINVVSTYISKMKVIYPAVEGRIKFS

NaV1.7 = molecular target: T2, NaV1.7 (Homo sapiens, UniProt Q15858); assay: Whole-cell patch clamp, HEK293-NaV1.7 cells; type: cell-based
T2 construct: expressed in transfected cells; host or cells: HEK293
T2 sequence (Q15858 whole entry): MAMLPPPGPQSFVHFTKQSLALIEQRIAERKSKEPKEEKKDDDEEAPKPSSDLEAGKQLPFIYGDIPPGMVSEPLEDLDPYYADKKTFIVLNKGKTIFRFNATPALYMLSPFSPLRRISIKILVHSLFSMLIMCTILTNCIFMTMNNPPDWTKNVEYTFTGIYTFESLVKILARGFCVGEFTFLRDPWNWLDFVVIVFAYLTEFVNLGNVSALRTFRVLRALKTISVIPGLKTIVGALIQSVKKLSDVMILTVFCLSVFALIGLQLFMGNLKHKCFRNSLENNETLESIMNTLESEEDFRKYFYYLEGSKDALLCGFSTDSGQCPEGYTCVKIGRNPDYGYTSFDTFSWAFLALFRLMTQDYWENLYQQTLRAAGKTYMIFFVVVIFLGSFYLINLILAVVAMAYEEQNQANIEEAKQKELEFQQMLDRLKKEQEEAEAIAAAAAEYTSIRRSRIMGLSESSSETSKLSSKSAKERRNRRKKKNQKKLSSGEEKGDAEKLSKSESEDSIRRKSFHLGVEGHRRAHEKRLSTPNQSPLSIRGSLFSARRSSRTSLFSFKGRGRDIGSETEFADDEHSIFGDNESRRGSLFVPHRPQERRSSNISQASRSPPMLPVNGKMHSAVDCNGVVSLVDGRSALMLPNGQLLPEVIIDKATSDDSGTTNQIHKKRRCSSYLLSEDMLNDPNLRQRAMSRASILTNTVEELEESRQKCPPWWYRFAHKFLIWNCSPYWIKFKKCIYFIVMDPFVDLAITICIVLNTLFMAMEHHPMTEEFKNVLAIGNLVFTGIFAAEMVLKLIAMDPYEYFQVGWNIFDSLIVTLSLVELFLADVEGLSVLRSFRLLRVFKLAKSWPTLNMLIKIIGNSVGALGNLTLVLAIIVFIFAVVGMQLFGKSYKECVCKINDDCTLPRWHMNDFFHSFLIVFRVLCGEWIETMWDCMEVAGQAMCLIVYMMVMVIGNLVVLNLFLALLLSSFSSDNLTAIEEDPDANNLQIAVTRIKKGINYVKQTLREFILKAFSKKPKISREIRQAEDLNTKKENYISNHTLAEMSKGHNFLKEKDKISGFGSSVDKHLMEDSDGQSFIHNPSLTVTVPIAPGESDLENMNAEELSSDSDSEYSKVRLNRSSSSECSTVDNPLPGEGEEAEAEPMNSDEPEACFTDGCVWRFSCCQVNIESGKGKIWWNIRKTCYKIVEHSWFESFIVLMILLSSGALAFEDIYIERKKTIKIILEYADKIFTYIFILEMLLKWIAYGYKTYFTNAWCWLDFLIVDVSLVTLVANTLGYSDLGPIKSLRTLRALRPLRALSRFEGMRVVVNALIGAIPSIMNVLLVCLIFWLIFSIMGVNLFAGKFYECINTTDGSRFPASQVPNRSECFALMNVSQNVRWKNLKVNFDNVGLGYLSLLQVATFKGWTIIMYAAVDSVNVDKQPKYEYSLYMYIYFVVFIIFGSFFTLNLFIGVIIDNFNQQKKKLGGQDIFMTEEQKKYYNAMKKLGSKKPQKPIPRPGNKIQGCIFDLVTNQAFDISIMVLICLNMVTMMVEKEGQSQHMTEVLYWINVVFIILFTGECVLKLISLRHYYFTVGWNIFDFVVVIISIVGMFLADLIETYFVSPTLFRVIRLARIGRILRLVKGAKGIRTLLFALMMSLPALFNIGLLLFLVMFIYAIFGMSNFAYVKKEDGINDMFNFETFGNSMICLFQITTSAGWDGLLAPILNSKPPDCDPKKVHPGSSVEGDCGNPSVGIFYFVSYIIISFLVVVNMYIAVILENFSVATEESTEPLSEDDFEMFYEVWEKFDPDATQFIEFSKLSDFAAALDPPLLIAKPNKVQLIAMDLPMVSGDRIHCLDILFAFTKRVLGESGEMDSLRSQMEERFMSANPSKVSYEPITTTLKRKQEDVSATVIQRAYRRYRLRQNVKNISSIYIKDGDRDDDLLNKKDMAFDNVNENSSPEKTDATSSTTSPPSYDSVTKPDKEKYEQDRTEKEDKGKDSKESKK

NaV1.2 = molecular target: T3, NaV1.2 (Homo sapiens, UniProt Q99250); assay: Whole-cell patch clamp, HEK293-NaV1.2 cells; type: cell-based
T3 construct: expressed in transfected cells; host or cells: HEK293
T3 sequence (Q99250 whole entry): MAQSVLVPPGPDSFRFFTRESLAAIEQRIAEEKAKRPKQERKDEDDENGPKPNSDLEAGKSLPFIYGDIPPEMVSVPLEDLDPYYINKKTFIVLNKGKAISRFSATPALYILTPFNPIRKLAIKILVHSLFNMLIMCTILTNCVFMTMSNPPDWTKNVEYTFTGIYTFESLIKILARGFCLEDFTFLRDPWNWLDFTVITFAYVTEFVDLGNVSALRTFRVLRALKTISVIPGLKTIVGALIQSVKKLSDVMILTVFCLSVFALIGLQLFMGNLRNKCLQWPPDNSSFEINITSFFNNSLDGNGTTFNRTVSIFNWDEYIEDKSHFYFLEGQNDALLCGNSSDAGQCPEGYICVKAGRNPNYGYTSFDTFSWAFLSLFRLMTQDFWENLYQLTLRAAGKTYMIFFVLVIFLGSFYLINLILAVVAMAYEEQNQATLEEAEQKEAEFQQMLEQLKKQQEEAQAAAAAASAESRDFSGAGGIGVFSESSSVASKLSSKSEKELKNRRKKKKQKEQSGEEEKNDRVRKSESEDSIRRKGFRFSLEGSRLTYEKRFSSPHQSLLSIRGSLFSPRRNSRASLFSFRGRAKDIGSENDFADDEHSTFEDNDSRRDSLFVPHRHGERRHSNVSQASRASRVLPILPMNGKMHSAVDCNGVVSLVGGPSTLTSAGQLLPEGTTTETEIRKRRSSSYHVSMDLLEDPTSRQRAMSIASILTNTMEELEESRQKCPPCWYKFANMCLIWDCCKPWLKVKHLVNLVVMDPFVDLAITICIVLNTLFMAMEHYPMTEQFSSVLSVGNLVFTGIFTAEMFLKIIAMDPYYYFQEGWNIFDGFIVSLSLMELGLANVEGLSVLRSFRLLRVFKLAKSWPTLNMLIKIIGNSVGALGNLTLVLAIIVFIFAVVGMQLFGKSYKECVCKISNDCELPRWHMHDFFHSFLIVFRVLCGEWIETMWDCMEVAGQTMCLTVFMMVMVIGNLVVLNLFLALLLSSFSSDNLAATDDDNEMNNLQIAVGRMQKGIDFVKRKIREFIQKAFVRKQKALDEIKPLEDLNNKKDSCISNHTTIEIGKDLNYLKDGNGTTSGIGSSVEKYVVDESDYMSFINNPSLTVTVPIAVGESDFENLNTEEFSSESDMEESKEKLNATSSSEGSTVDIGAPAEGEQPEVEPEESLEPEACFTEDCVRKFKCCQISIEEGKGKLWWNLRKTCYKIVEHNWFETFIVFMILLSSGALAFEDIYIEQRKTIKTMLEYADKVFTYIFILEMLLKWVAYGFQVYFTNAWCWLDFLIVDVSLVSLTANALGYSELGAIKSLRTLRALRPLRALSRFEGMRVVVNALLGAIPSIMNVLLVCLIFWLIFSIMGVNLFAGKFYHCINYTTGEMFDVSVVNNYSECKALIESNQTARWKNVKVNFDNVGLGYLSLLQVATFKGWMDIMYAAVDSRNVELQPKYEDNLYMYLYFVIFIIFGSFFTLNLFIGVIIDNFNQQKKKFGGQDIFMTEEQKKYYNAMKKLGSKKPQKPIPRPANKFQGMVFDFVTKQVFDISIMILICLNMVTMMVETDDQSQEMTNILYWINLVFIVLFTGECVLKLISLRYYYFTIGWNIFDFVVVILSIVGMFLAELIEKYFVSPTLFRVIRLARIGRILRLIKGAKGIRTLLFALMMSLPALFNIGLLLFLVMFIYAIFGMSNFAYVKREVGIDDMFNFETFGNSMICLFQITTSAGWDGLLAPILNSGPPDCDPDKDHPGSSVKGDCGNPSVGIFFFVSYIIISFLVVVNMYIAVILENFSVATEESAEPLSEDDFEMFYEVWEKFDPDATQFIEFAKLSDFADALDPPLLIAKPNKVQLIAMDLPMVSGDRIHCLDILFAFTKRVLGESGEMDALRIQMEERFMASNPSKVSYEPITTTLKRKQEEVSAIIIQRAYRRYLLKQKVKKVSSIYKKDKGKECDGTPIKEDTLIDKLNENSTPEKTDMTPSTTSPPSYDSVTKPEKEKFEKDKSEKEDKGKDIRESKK

[1] = non-competitive screening clones, 15 min incubation, read-out: IC50 ± SEM (nM) of Ab-PEG3-ASF in inhibiting NaV1.7
[2] = competitive screening clones, read-out: IC50 ± SEM of NaV1.7-selective Ab-ASF

B1: 6D11: CD73 antibody clone, VH SEQ ID NO: 81, VL SEQ ID NO: 91 (antibody, V domains shown)
VH: EVQLVESGGGLVQPGGSLRLSCAASGFTFSGHWMHWVRQAPGKGLEWIGSIYYSGSTYYNPSLKSRVTISADTSKNTAYLQMNSLRAEDTAVYYCARDRGWLQFDYWGQGTLVTVSS
VL: DIQMTQSPSSLSASVGDRVTITCRASQNIGTYLAWYQQKPGKAPKLLIYDASNLETGVPSRFSGSRSGTDFTLTISSLQPEDFATYYCQQXYTTPPTFGQGTKLEI
modifications: VARIANT 91 natural amino acid or unnatural amino acid
Question: For B1, which “inhibitory activity against CD73 (in words)” value (CD73) is on record?
Answer: weak inhibitory trend

Question: What about the IC50 (CD73) of the same molecule?
Answer: 0.464 nM

B2: 10A7-Fab-BN3: papain-derived Fab of 10A7 conjugated with BN3, monovalent (conjugate)
VH: EVQLVESGGGLVQPGGSLRLSCAASGFAFSSYSMSWVRQAPGKGLEWIGSIYYSGSTYYNPSLKSRVTISADTSKNTAYLQMNSLRAEDTAVYYCARNSGFETLDYWGQGTLVTVSS
VL: DIQMTQSPSSLSASVGDRVTITCRASQGISRWLAWYQQKPGKAPNLLIYGASTLQSGVPPRFSGSRSGTDFTLTISSLQPEDFATYYCQQXYTTPPTFGQGTKLEI
modifications: non-natural residues
Question: How did the “inhibitory activity against CD73 (in words)” value (CD73) turn out when B2 was run?
Answer: retained strong inhibitory activity

B3: G3-PEG3-ASF: IgG1 Ab-UAA G3 conjugated with ASF-PEG3-DBCO (conjugate)
VH: EVQLVESGGGLVQPGGSLRLSCAASGFTFSASYMSWVRQAPGKGLEWIGSIYYSGSTYYNPSLKSRVTISADTSKNTAYLQMNSLRAEDTAVYYCARGAPYYEGAFDIWGQGTLVTVSS
VL: DIQMTQSPSSLSASVGDRVTITCRASQYISTYLNWYQQKPGKAPKVLISKTSYLESGVPSRFSGSRSGTDFTLTISSLQPEDFATYYCQQXYTTPPTFGQGTKLEI
modifications: non-natural residues
notes: IgG1 Ab-UAA G3 conjugated with ASF-PEG3-DBCO
Question: For B3, which IC50 (NaV1.7; [1]) is on record?
Answer: 1.88 ± 0.394 nM

Question: What about the “inhibition of NaV1.2 at 500 nM” value (NaV1.2; highest tested concentration of 500 nM) of the same molecule?
Answer: approximately 60%

Question: What about the “inhibitory activity against NaV1.2 (in words)” value (NaV1.2; tested up to 500 nM) of the same molecule?
Answer: only weak inhibitory activity

B4: 15F9-PEG3-ASF: Ab-UAA 15F9 conjugated to ASF-PEG3-DBCO (conjugate)
VH: EVQLVESGGGLVQPGGSLRLSCAASGFTFSKFWMHWVRQAPGKGLEWVSSISSSSSYIYYADSVKGRFTISADTSKNTAYLQMNSLRAEDTAVYYCARDPISTGAFDIWGQGTLVTVSS
VL: DIQMTQSPSSLSASVGDRVTITCRASQSISSWLAWYQQKPGKAPKLLIYDASSLESGVPSRFSGSRSGTDFTLTISSLQPEDFATYYCQQXYTTPPTFGQGTKLEI
modifications: non-natural residues
notes: Ab-UAA 15F9 conjugated to ASF-PEG3-DBCO
Question: For B4, which “inhibitory activity against NaV1.7 at 10 nM (in words)” value (NaV1.7; 10 nM Ab-PEG3-ASF) is on record?
Answer: essentially no inhibitory activity

B5: 15F7-PEG3-ASF: Ab-UAA 15F7 conjugated to ASF-PEG3-DBCO (conjugate)
VH: EVQLVESGGGLVQPGGSLRLSCAASGFTFSGHWMHWVRQAPGKGLEWVSAISGSGGSTYYADSVKGRFTISADTSKNTAYLQMNSLRAEDTAVYYCAREVTMVRGVTDAFDIWGQGTLVTVSS
VL: DIQMTQSPSSLSASVGDRVTITCRASQGISSDLGWYQQKPGKAPKLLIYDVSNVQTGVPSRFSGSRSGTDFTLTISSLQPEDFATYYCQQXYTTPPTFGQGTKLEI
modifications: non-natural residues
notes: Ab-UAA 15F7 conjugated to ASF-PEG3-DBCO
Question: What does the source list for B5?
Answer: inhibition rate of NaV1.7 at 10 nM (NaV1.7; 10 nM Ab-PEG3-ASF): about 60%; IC50 (NaV1.7; [2]): 6.48 nM and 6.5 nM

B6: 10A7: CD73 antibody clone, VH SEQ ID NO: 73, VL SEQ ID NO: 83 (antibody, V domains shown)
VH: EVQLVESGGGLVQPGGSLRLSCAASGFAFSSYSMSWVRQAPGKGLEWIGSIYYSGSTYYNPSLKSRVTISADTSKNTAYLQMNSLRAEDTAVYYCARNSGFETLDYWGQGTLVTVSS
VL: DIQMTQSPSSLSASVGDRVTITCRASQGISRWLAWYQQKPGKAPNLLIYGASTLQSGVPPRFSGSRSGTDFTLTISSLQPEDFATYYCQQXYTTPPTFGQGTKLEI
modifications: VARIANT 91 natural amino acid or unnatural amino acid
Question: Which IC50 (CD73) does the source give for B6 here?
Answer: 0.607 nM

B7: ABN3-2G: CD73 antibody clone, VH SEQ ID NO: 77, VL SEQ ID NO: 87 (antibody, V domains shown)
VH: EVQLVESGGGLVQPGGSLRLSCAASGITFGSYTMSWVRQAPGKGLEWIGTVHYTGKTFYSPSLKSRVTISADTSKNTAYLQMNSLRAEDTAVYYCARGRDFGEPPYVRAFDIWGQGTLVTVSS
VL: DIQMTQSPSSLSASVGDRVTITCQASHDISKYLNWYQQKPGKAPKLLIYDASNLETGVPSRFSGSRSGTDFTLTISSLQPEDFATYYCQQXYTTPPTFGQGTKLEI
modifications: not fully specified; VARIANT 91 natural amino acid or unnatural amino acid
Question: How did the IC50 (CD73) turn out when B7 was run?
Answer: 0.565 nM

B8: H3-PEG3-ASF: IgG1 Ab-UAA H3 conjugated with ASF-PEG3-DBCO (conjugate)
VH: EVQLVESGGGLVQPGGSLRLSCAASGFTFSDYWISWVRQAPGKGLEWIGNVYYSGNAYYNPSLESRVTISADTSKNTAYLQMNSLRAEDTAVYYCARNTGFETLDNWGQGTLVTVSS
VL: DIQMTQSPSSLSASVGDRVTITCRASQSISSWLAWYQQKPGKAPNLLMYAASSLQSGVPSRFSGSRSGTDFTLTISSLQPEDFATYYCQQXYTTPPTFGQGTKLEI
modifications: non-natural residues
notes: IgG1 Ab-UAA H3 conjugated with ASF-PEG3-DBCO
Question: B8 was tested. Which IC50 (NaV1.7; [1]) did it give?
Answer: 1.13 ± 0.191 nM

B9: A4-PEG3-ASF: IgG1 Ab-UAA A4 conjugated with ASF-PEG3-DBCO (conjugate)
VH: EVQLVESGGGLVQPGGSLRLSCAASGFTFSGHWMHWVRQAPGKGLEWVSGISGSGGSTYYADSVKGRFTISADTSKNTAYLQMNSLRAEDTAVYYCARELTMATTTDAFDIWGQGTLVTVSS
VL: DIQMTQSPSSLSASVGDRVTITCQASQDIRNDLNWYQQKPGKAPKSLIYAASRLQSGVPSRFSGSRSGTDFTLTISSLQPEDFATYYCQQXYTTPPTFGQGTKLEI
modifications: non-natural residues
notes: IgG1 Ab-UAA A4 conjugated with ASF-PEG3-DBCO
Question: With B9 as the molecule, how does the IC50 (NaV1.7; [1]) read?
Answer: 1.22 ± 0.534 nM

B10: 15A10-PEG3-ASF: Ab-UAA 15A10 conjugated to ASF-PEG3-DBCO (conjugate)
VH: EVQLVESGGGLVQPGGSLRLSCAASGFPFSGHWMHWVRQAPGKGLEWVSGISGTGATSHYADSVKGRFTISADTSKNTAYLQMNSLRAEDTAVYYCAREVITAASTDAFDLWGQGTLVTVSS
VL: DIQMTQSPSSLSASVGDRVTITCRASQSIGSSLHWYQQKPGKAPTVLIYAASSLQTGVPSRFSGSRSGTDFTLTISSLQPEDFATYYCQQXYTTPPTFGQGTKLEI
modifications: not fully specified; non-natural residues
notes: Ab-UAA 15A10 conjugated to ASF-PEG3-DBCO
Question: Which IC50 (NaV1.7; [2]) does the source give for B10 here?
Answer: 0.138 ± 0.0414 nM

B11: 15C12-PEG3-ASF: Ab-UAA 15C12 conjugated to ASF-PEG3-DBCO (conjugate)
VH: EVQLVESGGGLVQPGGSLRLSCAASGFTFSGHWMHWVRQAPGKGLEWVSAISGSGGSTYYADSVKGRFTISADTSKNTAYLQMNSLRAEDTAVYYCARELTMASTTDAFDFWGQGTLVTVSS
VL: DIQMTQSPSSLSASVGDRVTITCQASQDISNSLNWYQQKPGKAPNLLIYATSNLQSGVPSRFSGSRSGTDFTLTISSLQPEDFATYYCQQXYTTPPTFGQGTKLEI
modifications: not fully specified; non-natural residues
notes: Ab-UAA 15C12 conjugated to ASF-PEG3-DBCO
Question: How did the IC50 (NaV1.7; [2]) turn out when B11 was run?
Answer: 0.0395 ± 0.00968 nM
